Test results published in US20210388087A1 (Chugai, published 2021).
Substitutions are numbered along the chain they refer to.

B1: CE115HA000/GLS3000 G89V (antibody, IgG1, name in Kabat numbering, V domains shown)
VH: QVQLVESGGGVVQPGRSLRLSCAASGFTFSNAWMHWVRQAPGKGLEWVAQIKAKSNNYATYYAESVKGRFTISRDDSKNSLYLQMNSLKTEDTAVYYCRYVHYGAYYGVDAWGQGTTVTVSS
VL: DIVMTQSPLSLPVTPGEPASISCRSSQSLVHSNRNTYLHWYQQKPGQAPRLLIYKVSNRFSGVPDRFSGSGSGTDFTLKISRVEAEDVGVYYCVQGTQVPYTFGQGTKLEIK
notes: one-arm IgG1
B2: CE115HA000/GLS3000 H27dF (antibody, IgG1, name in Kabat numbering, V domains shown)
VH: B1 VH
VL: B1 VL with H31F, V94G
notes: one-arm IgG1
B3: CE115HA000/GLS3000 H27dG (antibody, IgG1, name in Kabat numbering, V domains shown)
VH: B1 VH
VL: B1 VL with H31G, V94G
notes: one-arm IgG1
B4: CE115HA000/GLS3000 H27dM (antibody, IgG1, name in Kabat numbering, V domains shown)
VH: B1 VH
VL: B1 VL with H31M, V94G
notes: one-arm IgG1
B5: CE115HA000/GLS3000 H27dT (antibody, IgG1, name in Kabat numbering, V domains shown)
VH: B1 VH
VL: B1 VL with H31T, V94G
notes: one-arm IgG1
B6: CE115HA000/GLS3000 H34S (antibody, IgG1, name in Kabat numbering, V domains shown)
VH: B1 VH
VL: B1 VL with H39S, V94G
notes: one-arm IgG1
B7: CE115HA000/GLS3000 H27dP (antibody, IgG1, name in Kabat numbering, V domains shown)
VH: B1 VH
VL: B1 VL with H31P, V94G
notes: one-arm IgG1
B8: CE115HA000/GLS3000 H34L (antibody, IgG1, name in Kabat numbering, V domains shown)
VH: B1 VH
VL: B1 VL with H39L, V94G
notes: one-arm IgG1
B9: CE115HA000/GLS3000 G91D (antibody, IgG1, name in Kabat numbering, V domains shown)
VH: B1 VH
VL: B1 VL with V94G, G96D
notes: one-arm IgG1
B10: CE115HA000/GLS3000 H27dE (antibody, IgG1, name in Kabat numbering, V domains shown)
VH: B1 VH
VL: B1 VL with H31E, V94G
notes: one-arm IgG1
B11: CE115HA000/GLS3000 H27dK (antibody, IgG1, name in Kabat numbering, V domains shown)
VH: B1 VH
VL: B1 VL with H31K, V94G
notes: one-arm IgG1
B12: CE115HA000/GLS3000 H27dR (antibody, IgG1, name in Kabat numbering, V domains shown)
VH: B1 VH
VL: B1 VL with H31R, V94G
notes: one-arm IgG1
B13: CE115HA000/GLS3000 H27dL (antibody, IgG1, name in Kabat numbering, V domains shown)
VH: B1 VH
VL: B1 VL with H31L, V94G
notes: one-arm IgG1
B14: CE115HA000/GLS3000 G89W (antibody, IgG1, name in Kabat numbering, V domains shown)
VH: B1 VH
VL: B1 VL with V94W
notes: one-arm IgG1
B15: CE115HA000/GLS3000 H34A (antibody, IgG1, name in Kabat numbering, V domains shown)
VH: B1 VH
VL: B1 VL with H39A, V94G
notes: one-arm IgG1
B16: CE115HA000/GLS3000 H34V (antibody, IgG1, name in Kabat numbering, V domains shown)
VH: B1 VH
VL: B1 VL with H39V, V94G
notes: one-arm IgG1
B17: CE115HA000/GLS3000 H34Q (antibody, IgG1, name in Kabat numbering, V domains shown)
VH: B1 VH
VL: B1 VL with H39Q, V94G
notes: one-arm IgG1
B18: CE115HA000/GLS3000 H34E (antibody, IgG1, name in Kabat numbering, V domains shown)
VH: B1 VH
VL: B1 VL with H39E, V94G
notes: one-arm IgG1
B19: CE115HA000/GLS3000 H27dN (antibody, IgG1, name in Kabat numbering, V domains shown)
VH: B1 VH
VL: B1 VL with H31N, V94G
notes: one-arm IgG1
B20: CE115HA000/GLS3000 H34P (antibody, IgG1, name in Kabat numbering, V domains shown)
VH: B1 VH
VL: B1 VL with H39P, V94G
notes: one-arm IgG1
B21: CE115HA000/GLS3000 G89Y (antibody, IgG1, name in Kabat numbering, V domains shown)
VH: B1 VH
VL: B1 VL with V94Y
notes: one-arm IgG1
B22: CE115HA000/GLS3000 H34I (antibody, IgG1, name in Kabat numbering, V domains shown)
VH: B1 VH
VL: B1 VL with H39I, V94G
notes: one-arm IgG1
B23: CE115HA000/GLS3000 H34G (antibody, IgG1, name in Kabat numbering, V domains shown)
VH: B1 VH
VL: B1 VL with H39G, V94G
notes: one-arm IgG1
B24: CE115HA000/GLS3000 H34K (antibody, IgG1, name in Kabat numbering, V domains shown)
VH: B1 VH
VL: B1 VL with H39K, V94G
notes: one-arm IgG1
B25: CE115HA000/GLS3000 H34W (antibody, IgG1, name in Kabat numbering, V domains shown)
VH: B1 VH
VL: B1 VL with H39W, V94G
notes: one-arm IgG1
B26: CE115HA000/GLS3000 H34M (antibody, IgG1, name in Kabat numbering, V domains shown)
VH: B1 VH
VL: B1 VL with H39M, V94G
notes: one-arm IgG1
B27: CE115HA000/GLS3000 G91A (antibody, IgG1, name in Kabat numbering, V domains shown)
VH: B1 VH
VL: B1 VL with V94G, G96A
notes: one-arm IgG1
B28: CE115HA000/GLS3000 K50A (antibody, IgG1, name in Kabat numbering, V domains shown)
VH: B1 VH
VL: B1 VL with K55A, V94G
notes: one-arm IgG1
B29: CE115HA000/GLS3000 G91T (antibody, IgG1, name in Kabat numbering, V domains shown)
VH: B1 VH
VL: B1 VL with V94G, G96T
notes: one-arm IgG1
B30: CE115HA000/GLS3000 H27dW (antibody, IgG1, name in Kabat numbering, V domains shown)
VH: B1 VH
VL: B1 VL with H31W, V94G
notes: one-arm IgG1
B31: CE115HA000/GLS3000 G91P (antibody, IgG1, name in Kabat numbering, V domains shown)
VH: B1 VH
VL: B1 VL with V94G, G96P
notes: one-arm IgG1
B32: CE115HA000/GLS3000 H27dS (antibody, IgG1, name in Kabat numbering, V domains shown)
VH: B1 VH
VL: B1 VL with H31S, V94G
notes: one-arm IgG1
B33: CE115HA000/GLS3000 H27dA (antibody, IgG1, name in Kabat numbering, V domains shown)
VH: B1 VH
VL: B1 VL with H31A, V94G
notes: one-arm IgG1
B34: CE115HA000/GLS3000 H27dI (antibody, IgG1, name in Kabat numbering, V domains shown)
VH: B1 VH
VL: B1 VL with H31I, V94G
notes: one-arm IgG1
B35: CE115HA000/GLS3000 G91E (antibody, IgG1, name in Kabat numbering, V domains shown)
VH: B1 VH
VL: B1 VL with V94G, G96E
notes: one-arm IgG1
B36: CE115HA000/GLS3000 H27dQ (antibody, IgG1, name in Kabat numbering, V domains shown)
VH: B1 VH
VL: B1 VL with H31Q, V94G
notes: one-arm IgG1
B37: CE115HA000/GLS3000 H34N (antibody, IgG1, name in Kabat numbering, V domains shown)
VH: B1 VH
VL: B1 VL with H39N, V94G
notes: one-arm IgG1
B38: CE115HA000/GLS3000 G91Y (antibody, IgG1, name in Kabat numbering, V domains shown)
VH: B1 VH
VL: B1 VL with V94G, G96Y
notes: one-arm IgG1
B39: CE115HA000/GLS3000 H34F (antibody, IgG1, name in Kabat numbering, V domains shown)
VH: B1 VH
VL: B1 VL with H39F, V94G
notes: one-arm IgG1
B40: CE115HA000/GLS3000 H34Y (antibody, IgG1, name in Kabat numbering, V domains shown)
VH: B1 VH
VL: B1 VL with H39Y, V94G
notes: one-arm IgG1
B41: CE115HA000/GLS3000 H34T (antibody, IgG1, name in Kabat numbering, V domains shown)
VH: B1 VH
VL: B1 VL with H39T, V94G
notes: one-arm IgG1
B42: CE115HA000/GLS3000 H27dY (antibody, IgG1, name in Kabat numbering, V domains shown)
VH: B1 VH
VL: B1 VL with H31Y, V94G
notes: one-arm IgG1
B43: CE115HA000/GLS3000 H34D (antibody, IgG1, name in Kabat numbering, V domains shown)
VH: B1 VH
VL: B1 VL with H39D, V94G
notes: one-arm IgG1
B44: CE115HA000/GLS3000 H27dV (antibody, IgG1, name in Kabat numbering, V domains shown)
VH: B1 VH
VL: B1 VL with H31V, V94G
notes: one-arm IgG1

target: T1, CD3 epsilon homodimer protein (UniProt P07766 23-126); assay: SPR, antibody over immobilised CD3e homodimer;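 note: SPR at 25 °C with CD3 epsilon homodimer amine-coupled to a CM4 sensor chip and antibody flowed over as analyte in HBS-EP+ running buffer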
T1 construct: also called CD3 (CD3 epsilon)
T1 sequence (P07766 23-126): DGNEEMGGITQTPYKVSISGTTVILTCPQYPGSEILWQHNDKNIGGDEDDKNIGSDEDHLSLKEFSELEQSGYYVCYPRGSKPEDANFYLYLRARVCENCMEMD

Row | Binder | KD ratio to GLS3000
1 | B1 | 1.4
2 | B2 | 2.05
3 | B3 | 3.51
4 | B4 | 3.43
5 | B5 | 13000
6 | B6 | 1.24
7 | B7 | 9.21
8 | B8 | 1.03
9 | B9 | 44.8
10 | B10 | 42.3
11 | B11 | 3.8
12 | B12 | 2.35
13 | B13 | 3.37
14 | B14 | 2.2
15 | B15 | 1.18
16 | B16 | 1.04
17 | B17 | 4.6
18 | B18 | 8.03
19 | B19 | 3.43
20 | B20 | 1.22
21 | B21 | 1.12
22 | B22 | 0.89

Row | Binder | KD ratio to GLS3000
23 | B23 | 1.08
24 | B24 | 4.1
25 | B25 | 8.45
26 | B26 | 3.16
27 | B27 | 28.1
28 | B28 | 59.5
29 | B29 | 39.9
30 | B30 | 1.86
31 | B31 | 23.1
32 | B32 | 3.05
33 | B33 | 2.57
34 | B34 | 7.77
35 | B35 | 48.5
36 | B36 | 7.48
37 | B37 | 2.84
38 | B38 | 33.8
39 | B39 | 3.5
40 | B40 | 2.44
41 | B41 | 1.1
42 | B42 | 1.98
43 | B43 | 2100
44 | B44 | 354
